Test results taken from patent publication US20240182536A1 (MURAL ONCOLOGY, published 2024).

Key:
[1] = target: T1, human IL-18 binding protein (IL-18BP) (human, UniProt O95998 31-194); assay: Octet BLI
T1 construct: also called hu IL-18BP; hIL18BP
T1 sequence (looked up): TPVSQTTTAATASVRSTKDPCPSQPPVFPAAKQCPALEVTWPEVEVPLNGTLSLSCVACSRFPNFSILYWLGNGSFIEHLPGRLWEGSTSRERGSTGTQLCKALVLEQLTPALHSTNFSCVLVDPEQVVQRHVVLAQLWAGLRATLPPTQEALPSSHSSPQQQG
Experimental: (§1) Octet 96red instrument was used to determine affinities of IL18 proteins to BP or receptors. 5-10 ug/ml analyte proteins were used for loading on Sartorius tips (AHC or SA). […] 120-180 s loading, 200 s association and 800 s dissociation were used for kinetics. 3-7 data points were used to calculate affinities.

[2] = target: T2, human IL-18R alpha/beta pair (IL-18Rab) (human, UniProt Q13478 19-329; O95256 20-356); assay: Octet BLI
T2 construct: also called hu IL-18Rab
T2 sequence (looked up) 1: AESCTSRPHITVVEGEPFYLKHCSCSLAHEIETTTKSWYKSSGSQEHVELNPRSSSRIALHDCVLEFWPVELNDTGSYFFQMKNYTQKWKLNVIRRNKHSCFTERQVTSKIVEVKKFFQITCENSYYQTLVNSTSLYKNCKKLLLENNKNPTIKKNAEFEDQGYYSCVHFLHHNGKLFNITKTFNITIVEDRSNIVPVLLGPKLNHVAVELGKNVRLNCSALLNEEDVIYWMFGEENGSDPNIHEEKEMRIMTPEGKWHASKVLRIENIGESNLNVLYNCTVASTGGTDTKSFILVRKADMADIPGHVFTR
T2 sequence (looked up) 2: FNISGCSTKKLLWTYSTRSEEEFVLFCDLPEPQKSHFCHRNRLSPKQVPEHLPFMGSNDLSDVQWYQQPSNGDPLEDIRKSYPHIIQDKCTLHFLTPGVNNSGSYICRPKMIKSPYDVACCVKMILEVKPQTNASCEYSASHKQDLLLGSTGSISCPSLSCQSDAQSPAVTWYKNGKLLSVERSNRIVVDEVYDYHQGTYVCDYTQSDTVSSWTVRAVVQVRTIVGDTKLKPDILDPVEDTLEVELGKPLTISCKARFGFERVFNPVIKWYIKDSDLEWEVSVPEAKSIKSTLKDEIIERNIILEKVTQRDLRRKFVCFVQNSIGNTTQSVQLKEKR
Experimental: as §1

[3] = target: T3, human IL-18 receptor alpha (IL-18Rα) (human, UniProt Q13478 19-329, limits assumed); assay: Octet BLI
T3 construct: also called hu IL-18Ra; IL-18R alpha
T3 sequence (looked up): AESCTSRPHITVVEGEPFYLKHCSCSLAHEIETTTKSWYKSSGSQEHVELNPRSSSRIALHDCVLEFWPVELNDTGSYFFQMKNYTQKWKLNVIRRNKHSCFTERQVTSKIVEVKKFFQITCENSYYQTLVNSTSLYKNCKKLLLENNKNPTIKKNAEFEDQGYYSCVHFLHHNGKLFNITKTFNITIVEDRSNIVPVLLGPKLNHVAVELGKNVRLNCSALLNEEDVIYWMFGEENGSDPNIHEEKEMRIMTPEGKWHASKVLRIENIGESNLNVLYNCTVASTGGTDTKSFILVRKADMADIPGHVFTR
Experimental: as §1

[4] = target: T1, human IL-18 binding protein (IL-18BP); assay: cell-based or functional assay
[5] = target: T4, IL-18 receptors on HEK-Blue IL-18 reporter cells (InvivoGen) (UniProt Q13478 19-541; O95256 20-599); assay: cell-based or functional assay
T4 sequence (looked up) 1: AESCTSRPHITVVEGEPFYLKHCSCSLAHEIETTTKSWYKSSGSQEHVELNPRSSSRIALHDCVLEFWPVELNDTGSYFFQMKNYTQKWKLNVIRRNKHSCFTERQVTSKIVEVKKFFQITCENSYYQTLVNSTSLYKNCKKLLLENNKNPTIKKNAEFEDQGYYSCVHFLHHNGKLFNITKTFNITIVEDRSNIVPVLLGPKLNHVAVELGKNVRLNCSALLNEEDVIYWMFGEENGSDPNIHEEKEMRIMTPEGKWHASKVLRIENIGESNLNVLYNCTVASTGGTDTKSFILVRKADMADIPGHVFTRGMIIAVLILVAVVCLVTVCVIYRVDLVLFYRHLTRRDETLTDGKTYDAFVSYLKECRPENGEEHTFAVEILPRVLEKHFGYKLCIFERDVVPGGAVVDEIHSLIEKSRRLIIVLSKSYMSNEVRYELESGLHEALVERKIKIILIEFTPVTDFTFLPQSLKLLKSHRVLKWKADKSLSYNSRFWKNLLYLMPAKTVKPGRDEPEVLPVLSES
T4 sequence (looked up) 2: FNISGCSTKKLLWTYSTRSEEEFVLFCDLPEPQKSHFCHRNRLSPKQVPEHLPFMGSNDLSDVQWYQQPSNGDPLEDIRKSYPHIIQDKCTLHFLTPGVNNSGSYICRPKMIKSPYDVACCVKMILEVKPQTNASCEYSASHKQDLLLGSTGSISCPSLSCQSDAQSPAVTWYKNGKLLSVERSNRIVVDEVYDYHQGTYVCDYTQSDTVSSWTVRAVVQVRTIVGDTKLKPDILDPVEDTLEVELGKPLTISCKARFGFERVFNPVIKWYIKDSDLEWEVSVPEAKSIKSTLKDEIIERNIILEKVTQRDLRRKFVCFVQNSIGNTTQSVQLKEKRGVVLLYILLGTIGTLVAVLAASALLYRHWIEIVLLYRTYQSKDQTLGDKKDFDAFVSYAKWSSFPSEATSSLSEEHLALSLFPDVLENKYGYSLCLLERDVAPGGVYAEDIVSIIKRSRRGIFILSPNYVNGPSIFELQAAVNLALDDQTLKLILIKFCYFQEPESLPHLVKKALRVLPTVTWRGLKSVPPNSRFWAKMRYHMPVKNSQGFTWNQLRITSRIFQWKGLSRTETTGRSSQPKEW

[6] = target: T1, human IL-18 binding protein (IL-18BP); assay: cell-based or functional assay; remark: listed apart in the source
[7] = target: T5, IL-18 receptor (IL-18Rα and IL-18Rβ) (UniProt Q13478 19-541; O95256 20-599, limits assumed); assay: cell-based or functional assay
T5 sequence (looked up) 1: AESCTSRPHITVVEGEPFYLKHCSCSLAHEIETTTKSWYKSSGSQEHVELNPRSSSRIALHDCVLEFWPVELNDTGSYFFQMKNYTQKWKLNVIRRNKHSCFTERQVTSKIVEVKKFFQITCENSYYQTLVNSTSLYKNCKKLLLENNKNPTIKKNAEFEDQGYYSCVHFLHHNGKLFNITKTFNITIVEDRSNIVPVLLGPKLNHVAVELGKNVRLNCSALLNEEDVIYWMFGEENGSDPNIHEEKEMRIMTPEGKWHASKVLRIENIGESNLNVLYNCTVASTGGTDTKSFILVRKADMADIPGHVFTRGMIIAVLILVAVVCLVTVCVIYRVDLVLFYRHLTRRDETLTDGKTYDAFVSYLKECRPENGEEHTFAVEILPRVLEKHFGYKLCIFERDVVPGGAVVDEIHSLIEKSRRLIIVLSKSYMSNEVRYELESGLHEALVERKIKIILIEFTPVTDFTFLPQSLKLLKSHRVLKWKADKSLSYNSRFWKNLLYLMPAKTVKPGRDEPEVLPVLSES
T5 sequence (looked up) 2: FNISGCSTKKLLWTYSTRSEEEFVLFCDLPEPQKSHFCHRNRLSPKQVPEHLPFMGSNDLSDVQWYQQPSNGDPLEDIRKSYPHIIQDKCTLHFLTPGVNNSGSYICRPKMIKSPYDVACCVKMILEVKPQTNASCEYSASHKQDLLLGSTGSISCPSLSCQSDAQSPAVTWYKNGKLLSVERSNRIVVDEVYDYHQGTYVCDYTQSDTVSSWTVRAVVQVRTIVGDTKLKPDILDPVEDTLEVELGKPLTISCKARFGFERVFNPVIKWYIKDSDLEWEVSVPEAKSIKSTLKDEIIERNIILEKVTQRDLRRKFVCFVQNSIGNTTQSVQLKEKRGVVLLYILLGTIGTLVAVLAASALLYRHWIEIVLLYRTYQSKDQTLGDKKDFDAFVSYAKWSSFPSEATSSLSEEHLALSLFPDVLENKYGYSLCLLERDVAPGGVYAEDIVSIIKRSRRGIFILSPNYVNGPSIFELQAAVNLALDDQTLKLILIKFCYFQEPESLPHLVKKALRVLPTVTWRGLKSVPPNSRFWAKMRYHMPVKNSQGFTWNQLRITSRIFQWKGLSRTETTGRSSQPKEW

[8] = target: T1, human IL-18 binding protein (IL-18BP); assay: cell-based or functional assay; remark: listed apart in the source
[9] = target: T4, IL-18 receptors on HEK-Blue IL-18 …; assay: cell-based or functional assay; remark: listed apart in the source

B1: IL-18 variant G3T, M60K (ligand)
chain: YFTKLESKLSVIRNLNDQVLFIDQGNRPLFEDMTDSDMRDNAPRTIFIISMYKDSQPRGKAVTISVKSEKISTLSSENKIISFKEMNPPDNIKDTKSDIIFFQRSVPGHDNKMQFESSSYEGYFLASEKERDLFKLILKKEDELGDRSIMFTVQNED
- Kd [1]: 779 nM
- Kd [2]: 0.02 nM
- Kd [3]: 555 nM
- HEK-Blue Activity Assay Ec50 (pM), +300 nM hu IL-18BP [4]: 2.4 pM
- HEK-Blue Activity Assay Ec50 (pM), -hu IL-18BP [5]: 0.76 pM
- EC50 pM, IFN gamma expression in PBMCs, + 300 nM BP [6]: 117 pM
- EC50 pM, IFN gamma expression in PBMCs, no BP [7]: 214 pM
- Fold Change (BP/NO BP), 50 nM BP [8]: 0.99 fold
- Fold Change (BP/NO BP), 300 nM BP [8]: 3.14 fold
- HEK-Blue EC50 pM, +50 nM BP [8]: 0.7 pM
- HEK-blue EC50 (pM) + 300 nM BP [8]: 2.4 pM
- HEK-Blue EC50 pM, NO BP (50 nM BP run) [9]: 0.71 pM
- HEK-Blue EC50 pM, NO BP (300 nM BP run) [9]: 0.76 pM
